The values below come from the supplement of paper PMC12764529.

± gives the half width of the 95% confidence interval.

A short description of data set [1]: folding stability dG unfold from trypsin proteolysis; higher = more stable. In outline: (§1)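 Bayesian fitting of sequencing counts gave K50 for each design. Unfolding free energy followed by setting this against a sequence-predicted unfolded-state K50 and a shared folded-state K50, either per protease or with trypsin and chymotrypsin combined. The designs, under 80 residues and lacking cysteine, were digested in a PA-tagged cDNA display format at 11 threefold-diluted protease concentrations and without protease, and only those with AlphaFold2 dimer inter-PAE above 15 were kept.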

Data set [2] is described as follows: folding stability dG unfold from chymotrypsin proteolysis; higher = more stable. In outline: as §1
A short description of data set [3]: folding stability dG unfold (combined trypsin and chymotrypsin); higher = more stable. In outline: as §1

Consider “SAGGSAGGSAGKNWFFRIKIKYPNGEERTIYIPGTLDEIKEELPGPIKNIDIEPMPAEDMSAGGSAGGSAGG [r11_596_TrROS]”, for which the “folding stability dG unfold” value stood at 1.05 ± 0.045 kcal/mol in data set [1], 1.76 ± 0.1 kcal/mol in data set [2] and 1.52 ± 0.078 kcal/mol in data set [3].
As to “SAGGSAGGSAGKPEFELIAKIEVNGKTYYILRNKETGEYLIYDLDTGKKYTIRKDDPNLLSAGGSAGGSAGG [r11_1007_TrROS_Hall]”, the “folding stability dG unfold” value in data set [1] turned out to be 2.47 ± 0.16 kcal/mol; in data set [2] it was 2.95 ± 0.066 kcal/mol; in data set [3] it was 2.78 ± 0.34 kcal/mol.
For “SAGGSAGGSAGKPEIEMEIETRTVRLPDGYLLRFSRMRITLPDGSKFEFLSVEIIRLEDLSAGGSAGGSAGG [r17_312_TrROS_Hall]” the same measures were 3.88 ± 0.31 kcal/mol, 5.56 ± 0.14 kcal/mol and 5.38 ± 0.36 kcal/mol.
For “SAGGSAGGSAGKPKKPKLVKVKITLPNGEKKEIITEDVEEVIKEINEEFGAIKIEVEEIKSAGGSAGGSAGG [r17_508_TrMRF]” the same measures were 2.68 ± 0.12 kcal/mol, 2.8 ± 0.14 kcal/mol and 2.76 ± 0.17 kcal/mol.
As for “SAGGSAGGSAGKPKTKTITLTLLVYDEETGEFYRIEARIEINEDGSITIEEKIEKLPLKPSAGGSAGGSAGG [r11_941_TrROS_Hall]”, the entries for the “folding stability dG unfold” value in data set [1], in data set [2] and in data set [3] were 2.81 ± 0.13 kcal/mol, 4.17 ± 0.1 kcal/mol and 3.91 ± 0.12 kcal/mol, respectively.
For “SAGGSAGGSAGKPKTLEVEMLVLDPETRRLYRVRMEIVLDPEDEGKLTIRLEIEELELPDSAGGSAGGSAGG [r17_241_TrROS_Hall]”, the entries for the “folding stability dG unfold” value in data set [1], in data set [2] and in data set [3] were 3.42 ± 0.081 kcal/mol, 4.5 ± 0.096 kcal/mol and 4.27 ± 0.14 kcal/mol, respectively.
For “SAGGSAGGSAGKPKTVEIEVTNEDGSKYKAKVVEVDEEKGYVLIKITNPDGSEQTILIKLSAGGSAGGSAGG [r11_742_TrROS_Hall]”, the “folding stability dG unfold” value in data set [1] is 1.81 ± 0.06 kcal/mol; in data set [2] it was 2.97 ± 0.033 kcal/mol; in data set [3], 2.6 ± 0.1 kcal/mol.
Turning to “SAGGSAGGSAGKPKVKKITLKNPATGETVEAEVVEVDGYLVVRVRNKDDPEKTETFVFKLSAGGSAGGSAGG [r17_73_TrROS_Hall]”, the entries for the “folding stability dG unfold” value in data set [1], in data set [2] and in data set [3] were 2.17 ± 0.051 kcal/mol, 2.58 ± 0.049 kcal/mol and 2.48 ± 0.12 kcal/mol, respectively.
On to “SAGGSAGGSAGKPVLKLTVTLPNGLTVTVTINPDGEITVEIRPLPPPPPPVRTYSDEELKSAGGSAGGSAGG [r11_1015_TrROS_Hall]”, for which the “folding stability dG unfold” value is 2.29 ± 0.19 kcal/mol in data set [1], 2.75 ± 0.16 kcal/mol in data set [2] and 2.1 ± 0.31 kcal/mol in data set [3].
With “SAGGSAGGSAGKPVTLTDANGTPYSVSQVTTDPNSATVTATFTSPTSSTTHTATYPVTPASAGGSAGGSAGG [r11_290_JUSTAS]”, the “folding stability dG unfold” value turned out to be 1.03 ± 0.046 kcal/mol in data set [1], 0.728 ± 0.13 kcal/mol in data set [2] and 0.791 ± 0.14 kcal/mol in data set [3].
Regarding “SAGGSAGGSAGKRRIYILGMDTVQVAEYLRDTGPDIKVEVFNPGQPMEEFQDNYDIVIFVSAGGSAGGSAGG [r17_225_TrROS]”, the entries for the “folding stability dG unfold” value in data set [1], in data set [2] and in data set [3] were 1.59 ± 0.035 kcal/mol, 2.33 ± 0.1 kcal/mol and 2.04 ± 0.16 kcal/mol, respectively.
“SAGGSAGGSAGKTIKILLVVKDPETNEYYFLVMEIHLDENGNLHMKIKVFPTKEDAEKALSAGGSAGGSAGG [r11_792_TrROS_Hall]”: the results for the “folding stability dG unfold” value in data set [1], in data set [2] and in data set [3] were 3.66 ± 0.19 kcal/mol, 4.15 ± 0.085 kcal/mol and 4.06 ± 0.15 kcal/mol, respectively.
For “SAGGSAGGSAGKTLVFKTKEEALKAIEEEAKKKGYKKVKIEITEVGPDGKVKVKVKIEKKSAGGSAGGSAGG [r17_430_TrROS_Hall]” the same measures were 0.763 ± 0.047 kcal/mol, 1.34 ± 0.18 kcal/mol and 1.3 ± 0.19 kcal/mol.
For “SAGGSAGGSAGKTVVIEIKGMSKEQVLNLIKELAEKYPNSKIIITNENGEKIEINVKDLKSAGGSAGGSAGG [r11_541_TrROS_Hall]” the same measures were 1.95 ± 0.13 kcal/mol, 3.34 ± 0.12 kcal/mol and 2.85 ± 0.22 kcal/mol.
For “SAGGSAGGSAGKTYTLTITTENGKTITLPKDVEVVYDEKTGYLYIKNKKTNKVIKVKLKDSAGGSAGGSAGG [r17_432_TrROS_Hall]”, the figures for the “folding stability dG unfold” value in data set [1], in data set [2] and in data set [3] were 2.13 ± 0.051 kcal/mol, 2.21 ± 0.059 kcal/mol and 2.19 ± 0.079 kcal/mol, respectively.
In the case of “SAGGSAGGSAGKVELIETEDKLYLVVEVDGKKEVIEVSKEELEELLAALPPDAKVTILKPSAGGSAGGSAGG [r11_374_TrROS_Hall]”, the “folding stability dG unfold” value in data set [1] worked out at 3.17 ± 0.21 kcal/mol; in data set [2], 2.49 ± 0.12 kcal/mol; in data set [3] it was 2.77 ± 0.16 kcal/mol.
For “SAGGSAGGSAGKVIIIKVPKKDMTPEEVEKLAKELKEKFPDAKITVIEVKKDGYIIIKIDSAGGSAGGSAGG [r11_365_TrROS_Hall]”, the “folding stability dG unfold” value is 1.91 ± 0.063 kcal/mol in data set [1], 2.73 ± 0.079 kcal/mol in data set [2] and 2.47 ± 0.11 kcal/mol in data set [3].
In the case of “SAGGSAGGSAGKWIMFDSPEDIEEKLKENGYRIKNIEPQKMGGGPHVYVPIEIKPPPEDKSAGGSAGGSAGG [r11_141_TrROS]”, the “folding stability dG unfold” value in data set [1] was -0.506 ± 0.54 kcal/mol; in data set [2], 0.43 ± 0.39 kcal/mol; in data set [3], 0.155 ± 0.38 kcal/mol.
As to “SAGGSAGGSAGKYYIIKYPGKVEIIPESEVEKIIEANPNVEIEEFESKEEALKALEKALSSAGGSAGGSAGG [r11_60_TrMRF]”, the “folding stability dG unfold” value in data set [1] was 3.95 ± 0.21 kcal/mol; in data set [2], 4.24 ± 0.083 kcal/mol; in data set [3], 4.22 ± 0.09 kcal/mol.
For “SAGGSAGGSAGLEALKKALEALPPGEERELEIEVEVDGKLYRFRIRVEKTEDGEYKATIELESAGGSAGGSA [r18_493_TrROS_Hall]” the same measures were 4.56 ± 0.34 kcal/mol, 4.88 ± 0.084 kcal/mol and 4.76 ± 0.16 kcal/mol.
On to “SAGGSAGGSAGLEVPPGVPVKIPVVYVDKENDYVIVTELTITPDSGEIFYDPKIIPKKELSAGGSAGGSAGG [r11_468_TrMRF]”, for which the “folding stability dG unfold” value in data set [1] was found to be 0.251 ± 0.063 kcal/mol; in data set [2], 0.734 ± 0.07 kcal/mol; in data set [3], 0.65 ± 0.099 kcal/mol.
As to “SAGGSAGGSAGLFIPETGLLVVYDPAPGTLHVFRITGGDGLEIEPVGEVEVDPDNPELGTAFSAGGSAGGSA [r18_448_TrMRF]”, the “folding stability dG unfold” value in data set [1] was -0.284 ± 0.29 kcal/mol; in data set [2], 0.464 ± 0.16 kcal/mol; in data set [3], 0.327 ± 0.18 kcal/mol.
For “SAGGSAGGSAGLKPEVEALVRVVLKLPEGERVVLVKVKTLEELFELDLPEVVSIEIRPLKSAGGSAGGSAGG [r17_290_TrMRF]” the same measures were 1.28 ± 0.028 kcal/mol, 1.73 ± 0.049 kcal/mol and 1.6 ± 0.064 kcal/mol.
Turning to “SAGGSAGGSAGLTFTLPDGTKITIETLEDGSVKIKIETLTPDGKPLEAEFVIPGSHPDEDSAGGSAGGSAGG [r17_471_TrMRF]”, the “folding stability dG unfold” value in data set [1] stood at 3.2 ± 0.15 kcal/mol; in data set [2] it was 3.76 ± 0.14 kcal/mol; in data set [3] it was 3.58 ± 0.13 kcal/mol.
As to “SAGGSAGGSAGLTLRVKVKVELEYDPETNELTLRVEVEIELFPPPPLVVLSKEQLEELEESAGGSAGGSAGG [r17_454_TrROS_Hall]”, the results for the “folding stability dG unfold” value in data set [1], in data set [2] and in data set [3] were 2.67 ± 0.18 kcal/mol, 3.65 ± 0.24 kcal/mol and 3.21 ± 0.39 kcal/mol, respectively.
For “SAGGSAGGSAGMAEKLPSLSLFYLPETGDLVLIREETYVDPNDPDKSIVKQEIYVLPPEYSAGGSAGGSAGG [r17_241_TrMRF]” the same measures were 0.984 ± 0.051 kcal/mol, 1.74 ± 0.13 kcal/mol and 1.51 ± 0.096 kcal/mol.
As to “SAGGSAGGSAGMDKDGKWRRIPFMFVNPGDGYIFKWEIWIYPGGNIELEMEIIGPIKPGASAGGSAGGSAGG [r11_226_TrROS]”, the “folding stability dG unfold” value in data set [1] was 3.13 ± 0.13 kcal/mol; in data set [2], 4.8 ± 0.061 kcal/mol; in data set [3] it was 4.28 ± 0.11 kcal/mol.
With “SAGGSAGGSAGMEIEEEDGKLRLRLEAEFEVTVTTRNADGSTTETTARVRVELTFELPEESAGGSAGGSAGG [r17_103_TrROS_Hall]”, the “folding stability dG unfold” value was found to be 3.67 ± 0.29 kcal/mol in data set [1], 3.89 ± 0.12 kcal/mol in data set [2] and 3.89 ± 0.22 kcal/mol in data set [3].
In the case of “SAGGSAGGSAGMEIEEKGDYLVIRIKVKEGETIELPEGWEVVDVEYDPETEEVTIVIRRKSAGGSAGGSAGG [r11_942_TrROS_Hall]”, the “folding stability dG unfold” value is 4.38 ± 0.18 kcal/mol in data set [1], 2.88 ± 0.1 kcal/mol in data set [2] and 3.9 ± 0.28 kcal/mol in data set [3].
For “SAGGSAGGSAGMETTDSVITYPDGSVVTVTTLPDGTTRVTTFYPESGLTEEEIVPAAELGSAGGSAGGSAGG [r11_1015_JUSTAS]”, the “folding stability dG unfold” value in data set [1] turned out to be 1.8 ± 0.086 kcal/mol; in data set [2], 2.56 ± 0.1 kcal/mol; in data set [3], 2.19 ± 0.086 kcal/mol.
Regarding “SAGGSAGGSAGMEYHLVVVRPPNGEELVLLTDDDPELARRAARELFPGAEVRVEPVVLPESAGGSAGGSAGG [r11_850_TrMRF]”, the “folding stability dG unfold” value came out at 0.111 ± 0.034 kcal/mol in data set [1], 0.0832 ± 0.069 kcal/mol in data set [2] and 0.099 ± 0.077 kcal/mol in data set [3].
For “SAGGSAGGSAGMKEGEIVEVTVPIPENGEEIKVKVVAPPSLTEEEARALAEEKAKEIYEKSAGGSAGGSAGG [r11_355_JUSTAS]” the same measures were 0.0651 ± 0.062 kcal/mol, 0.99 ± 0.04 kcal/mol and 0.595 ± 0.077 kcal/mol.
As for “SAGGSAGGSAGMKIEVFPNTIKIYPENGKVLTFEAPDFGEEAIKEIAKAFPNAKIEPVEPSAGGSAGGSAGG [r17_545_TrMRF]”, the “folding stability dG unfold” value was -0.338 ± 0.13 kcal/mol in data set [1], -0.335 ± 0.16 kcal/mol in data set [2] and -0.189 ± 0.25 kcal/mol in data set [3].
In the case of “SAGGSAGGSAGMKIKTKNGEVIEIKVDKKTGKIEITFPDGKKITIDAPNLTIEDIKKLLESAGGSAGGSAGG [r11_729_TrMRF]”, the “folding stability dG unfold” value in data set [1] was 2.47 ± 0.064 kcal/mol; in data set [2] it was 2.34 ± 0.047 kcal/mol; in data set [3], 2.36 ± 0.051 kcal/mol.
In the case of “SAGGSAGGSAGMKPGETYLVRIRVKVDGKWYEKEVKFKSLEELKKAGIENIEEIEIRKLPSAGGSAGGSAGG [r17_290_TrROS_Hall]”, the results for the “folding stability dG unfold” value in data set [1], in data set [2] and in data set [3] were 1.99 ± 0.033 kcal/mol, 2.72 ± 0.075 kcal/mol and 2.47 ± 0.16 kcal/mol, respectively.
